Measured values as given in IntAct's records for PubMed 21596426.

Legend:
h4_human H4C16 = h4_human H4C16 (UniProt P62805)
h32_human H3C13 = h32_human H3C13 (UniProt Q71DI3)

Substance	effect of a mutation on the interaction (h4_human H4C16)	effect of a mutation on the interaction (h32_human H3C13)
Nucleosome-remodeling factor subunit BPTF (Homo sapiens) (from UniProt Q12830-4) F2870A	disrupting interaction	–
Nucleosome-remodeling factor subunit BPTF (Homo sapiens) (from UniProt Q12830-4) W2748E	–	disrupting interaction
